Broadly, the Kd is the concentration at which binding is half-saturated. As usually defined, the koff is the rate constant with which the complex falls apart. For orientation: kon means the second-order rate constant of association. As a reminder, the EC50 is the concentration at which the effect is half-maximal.

These results are taken from EP4613767A1 (Shanghai Qilu Pharmaceutical Research and Development …, dated 2025).

Test [1] addresses T1, monkey GPC3 protein (Acro, Cat. No.: GP3-C522a) (monkey).
T1 construct: Bought recombinant protein
Briefly: SPR Biacore 8K, anti-human Fc on CM5 chip, GPC3 protein as analyte, 1:1 fit. Background: Surface plasmon resonance follows binding to a sensor surface in real time, without labels.

For test [2], the target named is T2, human CD3 naturally expressed on Jurkat cells (human, UniProt P07766 23-207; P04234 22-171; P09693 23-182).
T2 construct: whole, on cells; also called hCD3
T2 sequence (P07766 23-207, chain 1 of 3): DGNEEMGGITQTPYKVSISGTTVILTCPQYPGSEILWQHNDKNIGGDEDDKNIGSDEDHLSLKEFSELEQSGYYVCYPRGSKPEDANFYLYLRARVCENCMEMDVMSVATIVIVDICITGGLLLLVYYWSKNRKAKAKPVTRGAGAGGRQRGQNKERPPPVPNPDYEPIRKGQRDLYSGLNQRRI
T2 sequence (P04234 22-171, chain 2 of 3): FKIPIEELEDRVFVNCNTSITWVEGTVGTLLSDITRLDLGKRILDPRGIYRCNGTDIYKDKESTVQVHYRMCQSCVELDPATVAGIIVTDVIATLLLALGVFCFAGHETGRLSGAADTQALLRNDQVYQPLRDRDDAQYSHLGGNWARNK
T2 sequence (P09693 23-182, chain 3 of 3): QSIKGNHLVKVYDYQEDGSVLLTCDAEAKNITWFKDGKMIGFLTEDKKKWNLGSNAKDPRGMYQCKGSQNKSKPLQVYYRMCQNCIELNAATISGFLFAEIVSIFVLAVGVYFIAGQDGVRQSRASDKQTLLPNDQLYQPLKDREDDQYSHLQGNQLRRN
The test can be described thus: FACS on Jurkat cells naturally expressing human CD3.

Test [3] concerns the target T3, human CD3 E&D protein (Acro, Cat. No.: CDD-H52W1) (human, UniProt P07766 23-126; P04234 22-105).
T3 construct: Bought recombinant protein
The test can be described thus: SPR Biacore 8K, CD3 E&D immobilised on CM5 chip, antibody as analyte, 1:1 fit.

Test [4] deals with monkey CD3 E&D protein (Acro, Cat. No.: CDD-C52W4) (monkey, UniProt Q95LI5 22-117; Q95LI8 22-105). The description is as above.
Sequence of monkey CD3 E&D protein (Acro, Cat. No.: CDD-C52W4) (Q95LI5 22-117, chain 1 of 2): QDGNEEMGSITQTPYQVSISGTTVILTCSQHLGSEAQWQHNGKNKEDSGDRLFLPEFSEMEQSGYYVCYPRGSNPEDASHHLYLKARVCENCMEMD
Sequence of monkey CD3 E&D protein (Acro, Cat. No.: CDD-C52W4) (Q95LI8 22-105, chain 2 of 2): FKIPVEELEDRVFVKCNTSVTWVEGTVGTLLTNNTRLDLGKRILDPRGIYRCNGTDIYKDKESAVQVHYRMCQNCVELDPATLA

T3 sequence (P07766 23-126, chain 1 of 2): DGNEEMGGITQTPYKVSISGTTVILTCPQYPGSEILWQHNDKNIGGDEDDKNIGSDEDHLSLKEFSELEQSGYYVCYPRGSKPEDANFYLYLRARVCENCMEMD
T3 sequence (P04234 22-105, chain 2 of 2): as the sequence (Q95LI8 22-105, chain 2 of 2) above, with V5I, K15N, V20I, T32S, N33D, N34I, A64T, N74S, L83V counted along it

B1: bispecific antigen-binding molecule G100 (bispecific antibody)
chain 1: not shown
chain 2: EVKLVESGGGLVQPGGSLKLSCAASGFTFNTYAMNWVRQAPGKGLEWVARIRSKYNNYATYYADSVKDRFTISRDDAKNTLYLQMNNLRTEDTAVYYCVRHGNFGNSYVSWFAYWGQGTLVTVSSGGGGSGGGGSGGGGSAQAVVTQEPSLTVSPGGTVTLTCRSSTGAVTTSNYANWVQQKPGQAPRGLIGGTNKRAPGTPARFSGSLLGGKAALTLSGAQPEDEAEYYCALWYSNLWVFGGGTKLTVLEPKSSDKTHTCPPCPAPEAAGGPSVFLFPPKPKDTLMISRTPEVTCVVVDVSHEDPEVKFNWYVDGVEVHNAKTKPREEQYNSTYRVVSVLTVLHQDWLNGKEYKCKVSNKALPAPIEKTISKAKGQPREPQVCTLPPSRDELTKNQVSLSCAVKGFYPSDIAVEWESNGQPENNYKTTPPVLDSDGSFFLVSKLTVDKSRWQQGNVFSCSVMHEALHNRYTQKSLSLSPGK
notes: Heterodimer of two chains (Format 1): one anti-GPC3 VHH on Knob-Fc, one anti-CD3 scFv on Hole-Fc; also called anti-CD3-GPC3 bispecific antibody; Format 1
In test [1], B1 gave a Kd of 9.15 nM, a koff of 0.00276 s⁻¹ and a kon of 302000 M⁻¹ s⁻¹. In addition, in test [2], it took 23.9 nM to reach a half-maximal effect (EC50). In test [3], this molecule registered a Kd of 3.49 nM, a koff of 0.00286 s⁻¹ and a kon of 820000 M⁻¹ s⁻¹. In test [4], this molecule returned a Kd of 5.66 nM, a koff of 0.00427 s⁻¹ and a kon of 755000 M⁻¹ s⁻¹.

B2: bispecific antigen-binding molecule G156 (bispecific antibody)
chain 1: not shown
chain 2: B1 chain 2
notes: Heterodimer of two chains (Format 2): two anti-GPC3 VHH on the Knob-Fc chain, one anti-CD3 scFv on Hole-Fc; also called anti-CD3-GPC3 bispecific antibody; Format 2
For the molecule B2, the Kd was 9.62 nM in test [1], 1.3 nM in test [3] and 2.79 nM in test [4]. The koff in test [1] turned out to be 0.00275 s⁻¹; in test [3] it was 0.00193 s⁻¹; in test [4], 0.00367 s⁻¹. Besides, the kon in test [1] was determined as 285000 M⁻¹ s⁻¹; in test [3] it was 1.48e+06 M⁻¹ s⁻¹; in test [4] it was 1.32e+06 M⁻¹ s⁻¹. This molecule had an EC50 in test [2] of 27.4 nM.
